In publication PMC7045643, “Allosteric inhibition of CRISPR-Cas9 by bacteriophage-derived peptides” (Genome Biology, 2020):

Biological target: Streptococcus pyogenes Cas9 (SpCas9) protein, wild type (Streptococcus pyogenes) (UniProt Q99ZW2)

Q: “M13 phage major coat protein G8P periplasmic domain peptide (M13 G8PPD)” was tested. Which inhibition of the in vitro DNA cleavage activity of 50 nM SpCas9, peptide added before sgRNA (IC50) did it give?
A: 5 µM
